Reference: US20240109955A1

B1: MX1022 (bispecific antibody)
chain: DTVMTQSPLSLPVTPGEPASISCRSSQSLLNSNGYNYLDWYVQKPGQSPQLLIYLGSNRASGVPDRFSGSGSGTDFTLKISRVEAEDVGVYYCMQPLQTPLFTFGPGTKVEIKGGSSGEIVMTQSPAILSVSPGERATLSCRASQSVAINLAWYQQKPGQAPRLLIYAASSRATGIPGRFSGSGSETNFTLTISSLQSGDFAVYYCQQYITWPPSYTFGQGTKLEIKGGGGSGGSGSGGGGSASGSGEVQLVESGGALIQPGGSLRLSCAASGIIVSANYMSWVRQAPGKGLEWVSVIYSGGSTFYADSVKGRFTISRDNSKNTLYLEMNSLRAEDTAVYYCARDAPILGVSDWGQGTLVTVSSGGSSGQVTLRESGPALVKPTQTLTLTCTFSGFSLSTRGVCVSWIRQPPGKALEWLAFIDWDDDKYYNTSLKTRLTISKDTSKNQVVLTMTNVHPVDTATYYCARISSHHGSSWCTTFDYWGQGALVTVSAASGGSGDKTHTCPPCPAPELLGGPSVFLFPPKPKDTLMISRTPEVTCVVVDVSHEDPEVKFNWYVDGVEVHNAKTKPREEQYNSYVVSVLTVLHQDWLNGKEYKCKVSNKALPAPIEKTISKAKGQPREPQVYTLPPSRDELTKNQVSLTCLVKGFYPSDIAVEWESNGQPENNYKTTPPVLDSDGSFFKKLTVDKSRWQQGNVFSCSVLHEALHSHYTQKSLSLSPG
B2: MX1070 (protein)
chain 1: QTVVTQEPSFSVSPGGTVTLTCGLSSGSVSTAYFPSWYQQTPGQAPRTLIYGTNTRSSGVPDRFSGSILGNKAALTITGAQADDESDYYCVLYMGRGIVVFGGGTKLTVLGGSSGEIVLTQSPGTLSLSPGETATLSCRASQSFSSDLAWYQQKPGQAPRLLIYGASSRATGIPDRFSGSGSGTDFTLTISRLEPADFAVYYCQQYGSSPPVTFGGGTKVEIKGGGGSGGSGSGGGGSASGSGEVQLVESGGGLIQPGGSLRLSCAASGVIVSYNYMNWVRQAPGKGLEWVSVIYSGGSTFYADSVRGRFTISRDNSKNTLYLQMNSLRAEDTAVYYCARDLGPAGAFDIWGLGTMVTVSSGGSSGQVQLVESGGGVVQPGRSLRLSCAASGFTLSSYGMHWVRQAPGKGLEWVAVISYDGSNKYYVDSVKGRFTISRDNSKNTLYLQMNSLRAEDTAVYYCRWAYWELLPDYYYGMDVWGQGTTVTVSSASGGSGDKTHTCPPCPAPELLGGPSVFLFPPKPKDTLMISRTPEVTCVVVDVSHEDPEVKFNWYVDGVEVHNAKTKPREEQYNSYVVSVLTVLHQDWLNGKEYKCKVSNKALPAPIEKTISKAKGQPREPQVYTLPPCRDELTKNQVSLWCLVKGFYPSDIAVEWESNGQPENNYKTTPPVLDSDGSFFKKLTVDKSRWQQGNVFSCSVLHEALHSHYTQKSLSLSPG
chain 2: DTVMTQSPLSLPVTPGEPASISCRSSQSLLNSNGYNYLDWYVQKPGQSPQLLIYLGSNRASGVPDRFSGSGSGTDFTLKISRVEAEDVGVYYCMQPLQTPLFTFGPGTKVEIKGGSSGEIVLTQSPGTLSLSPGETATLSCRASQSFSSDLAWYQQKPGQAPRLLIYGASSRATGIPDRFSGSGSGTDFTLTISRLEPADFAVYYCQQYGSSPPVTFGGGTKVEIKGGGGSGGSGSGGGGSASGSGEVQLVESGGGLIQPGGSLRLSCAASGVIVSYNYMNWVRQAPGKGLEWVSVIYSGGSTFYADSVRGRFTISRDNSKNTLYLQMNSLRAEDTAVYYCARDLGPAGAFDIWGLGTMVTVSSGGSSGQVTLRESGPALVKPTQTLTLTCTFSGFSLSTRGVCVSWIRQPPGKALEWLAFIDWDDDKYYNTSLKTRLTISKDTSKNQVVLTMTNVHPVDTATYYCARISSHHGSSWCTTFDYWGQGALVTVSAASGGSGDKTHTCPPCPAPELLGGPSVFLFPPKPKDTLMISRTPEVTCVVVDVSHEDPEVKFNWYVDGVEVHNAKTKPREEQYNSYVVSVLTVLHQDWLNGKEYKCKVSNKALPAPIEKTISKAKGQPREPQVCTLPPSRDELTKNQVSLSCAVKGFYPSDIAVEWESNGQPENNYKTTPPVLDSDGSFFLVSKLTVDKSRWQQGNVFSCSVLHEALHSHYTQKSLSLSPG
B3: MX1073 (protein)
chain 1: B2 chain 1
chain 2: QTVVTQEPSFSVSPGGTVTLTCGLSSGSVSTAYFPSWYQQTPGQAPRTLIYGTNTRSSGVPDRFSGSILGNKAALTITGAQADDESDYYCVLYMGRGIVVFGGGTKLTVLGGSSGDTVMTQSPLSLPVTPGEPASISCRSSQSLLNSNGYNYLDWYVQKPGQSPQLLIYLGSNRASGVPDRFSGSGSGTDFTLKISRVEAEDVGVYYCMQPLQTPLFTFGPGTKVEIKGGGGSGGSGSGGGGSASGSGQVTLRESGPALVKPTQTLTLTCTFSGFSLSTRGVCVSWIRQPPGKALEWLAFIDWDDDKYYNTSLKTRLTISKDTSKNQVVLTMTNVHPVDTATYYCARISSHHGSSWCTTFDYWGQGALVTVSAGGSSGQVQLVESGGGVVQPGRSLRLSCAASGFTLSSYGMHWVRQAPGKGLEWVAVISYDGSNKYYVDSVKGRFTISRDNSKNTLYLQMNSLRAEDTAVYYCRWAYWELLPDYYYGMDVWGQGTTVTVSSASGGSGDKTHTCPPCPAPELLGGPSVFLFPPKPKDTLMISRTPEVTCVVVDVSHEDPEVKFNWYVDGVEVHNAKTKPREEQYNSYVVSVLTVLHQDWLNGKEYKCKVSNKALPAPIEKTISKAKGQPREPQVCTLPPSRDELTKNQVSLSCAVKGFYPSDIAVEWESNGQPENNYKTTPPVLDSDGSFFLVSKLTVDKSRWQQGNVFSCSVLHEALHSHYTQKSLSLSPG
B4: MX1021 (bispecific antibody)
chain: QTVVTQEPSFSVSPGGTVTLTCGLSSGSVSTAYFPSWYQQTPGQAPRTLIYGTNTRSSGVPDRFSGSILGNKAALTITGAQADDESDYYCVLYMGRGIVVFGGGTKLTVLGGSSGEIVMTQSPAILSVSPGERATLSCRASQSVAINLAWYQQKPGQAPRLLIYAASSRATGIPGRFSGSGSETNFTLTISSLQSGDFAVYYCQQYITWPPSYTFGQGTKLEIKGGGGSGGSGSGGGGSASGSGEVQLVESGGALIQPGGSLRLSCAASGIIVSANYMSWVRQAPGKGLEWVSVIYSGGSTFYADSVKGRFTISRDNSKNTLYLEMNSLRAEDTAVYYCARDAPILGVSDWGQGTLVTVSSGGSSGQVQLVESGGGVVQPGRSLRLSCAASGFTLSSYGMHWVRQAPGKGLEWVAVISYDGSNKYYVDSVKGRFTISRDNSKNTLYLQMNSLRAEDTAVYYCRWAYWELLPDYYYGMDVWGQGTTVTVSSASGGSGDKTHTCPPCPAPELLGGPSVFLFPPKPKDTLMISRTPEVTCVVVDVSHEDPEVKFNWYVDGVEVHNAKTKPREEQYNSYVVSVLTVLHQDWLNGKEYKCKVSNKALPAPIEKTISKAKGQPREPQVYTLPPSRDELTKNQVSLTCLVKGFYPSDIAVEWESNGQPENNYKTTPPVLDSDGSFFKKLTVDKSRWQQGNVFSCSVLHEALHSHYTQKSLSLSPG

Assays:
Assay in all cases: cell-based or functional assay
[1] = target: SARS-CoV-2 Delta variant spike protein (SARS-CoV-2)
[2] = target: SARS-CoV-2 Omicron variant B.1.1.529 spike protein (SARS-CoV-2)
[3] = target: SARS-CoV-2 Omicron variant BA.2.75.2 spike protein (SARS-CoV-2)
[4] = target: SARS-CoV-2 Omicron variant BA.4.6 spike protein (SARS-CoV-2)
[5] = target: SARS-CoV-2 Omicron variant BA.4/5 spike protein (SARS-CoV-2)
[6] = target: SARS-CoV-2 Omicron variant BF.7 spike protein (SARS-CoV-2)
[7] = target: SARS-CoV-2 Omicron variant BQ.1 spike protein (SARS-CoV-2)
[8] = target: SARS-CoV-2 Omicron variant BQ.1.1 spike protein (SARS-CoV-2)
[9] = target: SARS-CoV-2 Omicron variant XBB spike protein (SARS-CoV-2)
[10] = target: SARS-CoV-2 spike protein, Omicron variant BA.2.75.2 (SARS-CoV-2)
[11] = target: SARS-CoV-2 spike protein, Omicron variant BA.4/5 (SARS-CoV-2)
[12] = target: SARS-CoV-2 spike protein, Omicron variant BQ.1 (SARS-CoV-2)
[13] = target: SARS-CoV-2 spike protein, Omicron variant BQ.1.1 (SARS-CoV-2)
[14] = target: SARS-CoV-2 spike protein, Omicron variant XBB (SARS-CoV-2)

Binder	IC50, pseudovirus neutralization [1]	IC80, pseudovirus neutralization [1]	IC50, pseudovirus neutralization [2]	IC80, pseudovirus neutralization [2]	IC50, pseudovirus neutralization [3]	IC80, pseudovirus neutralization [3]	IC50, pseudovirus neutralization [4]	IC80, pseudovirus neutralization [4]	IC50, pseudovirus neutralization [5]	IC80, pseudovirus neutralization [5]	IC50, pseudovirus neutralization [6]	IC80, pseudovirus neutralization [6]	IC50, pseudovirus neutralization [7]	IC80, pseudovirus neutralization [7]	IC50, pseudovirus neutralization [8]	IC80, pseudovirus neutralization [8]	IC50, pseudovirus neutralization [9]	IC80, pseudovirus neutralization [9]	IC50, pseudovirus neutralization [10]	IC80, pseudovirus neutralization [10]	other results
B1	31.5 ng/mL	25.4 ng/mL	4.22 ng/mL	4.74 ng/mL	0.89 ng/mL	2.8 ng/mL	4.9 ng/mL	8.82 ng/mL	1.98 ng/mL	3.33 ng/mL	2.38 ng/mL	8.29 ng/mL	6.58 ng/mL	19.2 ng/mL	1.13 ng/mL	6.72 ng/mL	5.85 ng/mL	12.4 ng/mL	–	–	–
B2	–	–	–	–	–	–	–	–	–	–	–	–	–	–	–	–	–	–	2.4 ng/mL	4.16 ng/mL	IC50, pseudovirus neutralization [11]: 2.49 ng/mL; IC80, pseudovirus neutralization [11]: 3.58 ng/mL; IC50, pseudovirus neutralization [12]: 4.64 ng/mL; IC80, pseudovirus neutralization [12]: 9.16 ng/mL; IC50, pseudovirus neutralization [13]: 4.06 ng/mL; IC80, pseudovirus neutralization [13]: 11 ng/mL; IC50, pseudovirus neutralization [14]: 2.9 ng/mL; IC80, pseudovirus neutralization [14]: 9.71 ng/mL
B3	–	–	–	–	–	–	–	–	–	–	–	–	–	–	–	–	–	–	1.81 ng/mL	3.35 ng/mL	IC50, pseudovirus neutralization [11]: 2.78 ng/mL; IC80, pseudovirus neutralization [11]: 4.28 ng/mL; IC50, pseudovirus neutralization [12]: 1.9 ng/mL; IC80, pseudovirus neutralization [12]: 10.8 ng/mL; IC50, pseudovirus neutralization [13]: 5.77 ng/mL; IC80, pseudovirus neutralization [13]: 24.1 ng/mL; IC50, pseudovirus neutralization [14]: 9.3 ng/mL; IC80, pseudovirus neutralization [14]: 24 ng/mL
B4	64.8 ng/mL	219 ng/mL	2.91 ng/mL	13.1 ng/mL	3.73 ng/mL	13.2 ng/mL	12.9 ng/mL	41.4 ng/mL	13.8 ng/mL	26 ng/mL	11.3 ng/mL	31.7 ng/mL	11.3 ng/mL	51.9 ng/mL	2.77 ng/mL	28.5 ng/mL	14.7 ng/mL	61.1 ng/mL	–	–	–
